Substitutions are numbered along the chain they refer to. In names and notes the source's numbering stands.

Usually Kd stands for a measure of binding affinity in units of concentration. A word on the koff: it is a measure of how fast the partners let go of each other. What is called kon is a measure of how fast the partners come together.

In this test the target is T1, Recombinant MBP-mutCALR Type 1 fusion protein (human).
T1 construct: custom made at Cepter; also called recombinant mutCALR protein
The experiment in a line: SPR, IgG captured, 1:1 fit, Exp. 2. As for the experimental part:
Experiment 2: Recombinant MBP-mutCALR Type 1 fusion protein was custom made at Cepter (cepterbiopartners.com). Data for the interaction of antibodies with recombinant mutCALR protein were collected at 25° C. on a Biacore 8K instrument (Cytiva, Marlborough, Mass.), and all reagents were obtained from Cytiva unless otherwise specified. The experiments were conducted using Tris-buffered saline (pH 7.2), 0.005% Surfactant P20, 1 mM CaCl₂) as running buffer. To prepare the capture surfaces, anti-human IgG (Fc) antibodies (Product #29234600) was amine-coupled onto a CM4 chip (Product #BR100534) under standard conditions using an Amine Coupling Kit (Product #BR100050). […] The kinetics parameters were obtained by applying 1:1 binding model to fit the data from multiple-cycle injection experiments using Biacore Insight Evaluation software.

B1: anti-mutCALR antibody clone 170 (antibody, human IgG1, lambda, N297A)
heavy: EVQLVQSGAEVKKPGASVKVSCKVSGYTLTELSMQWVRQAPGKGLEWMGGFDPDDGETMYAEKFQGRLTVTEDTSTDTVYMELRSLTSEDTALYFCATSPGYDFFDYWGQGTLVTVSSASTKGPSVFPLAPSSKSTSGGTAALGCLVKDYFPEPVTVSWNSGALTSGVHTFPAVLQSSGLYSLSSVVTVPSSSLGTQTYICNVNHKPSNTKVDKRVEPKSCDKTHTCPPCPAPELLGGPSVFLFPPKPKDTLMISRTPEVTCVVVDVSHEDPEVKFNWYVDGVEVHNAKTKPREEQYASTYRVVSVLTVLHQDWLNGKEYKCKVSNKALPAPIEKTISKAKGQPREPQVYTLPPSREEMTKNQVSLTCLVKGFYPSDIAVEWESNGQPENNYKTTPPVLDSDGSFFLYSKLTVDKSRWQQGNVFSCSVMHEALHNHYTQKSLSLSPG
light: SYVLTQPPSVSVAPGQTARITCGGSDIGDEIVHWYQQKPGQAPVLVVYDDSDRPSGIPERFSGSNSGNTATLTISRAQAGDEADYYCQVWDSSSDHLIFGGGTKLTVLGQPKAAPSVTLFPPSSEELQANKATLVCLISDFYPGAVTVAWKADSSPVKAGVETTTPSKQSNNKYAASSYLSLTPEQWKSHRSYSCQVTHEGSTVEKTVAPTECS
notes: human IgG1 N297A variant of clone 17
Consider B1, for which the Kd was found to be 0.419 nM, the koff came to 0.00179 s⁻¹ and the kon came out at 4.27e+06 M⁻¹ s⁻¹.

B2: anti-mutCALR antibody clone 181 (antibody, human IgG1, lambda, N297A, V domains shown)
VH: EVQLVQSGAEVKKPGASVKVSCKVSGYTLTELSMQWVRQAPGKGLEWMGGFDPDAGETMYAEKFQGRLTVTEDTSTDTVYMELRSLTSEDTALYFCATSPGYDFFDYWGQGTLVTVSS
VL: SYVLTQPPSVSVAPGQTARITCGGSDIGDEIVHWYQQKPGQAPVLVVYDDSDRPSGIPERFSGSNSGNTATLTISRVEAGDEADYYCQVWDSSSDHLIFGGGTKLTVLG
notes: as for B1
Regarding B2, the Kd stood at 1.58 nM, the koff stood at 0.0209 s⁻¹ and the kon amounted to 1e+07 M⁻¹ s⁻¹.

B3: anti-mutCALR antibody clone 174 (antibody, human IgG1, lambda, N297A, V domains shown)
VH: B2 VH with A55D, G56A
VL: B2 VL with V77A, E78Q
In the case of B3, the Kd came to 0.526 nM, the koff is 0.0041 s⁻¹ and the kon is 7.8e+06 M⁻¹ s⁻¹.

B4: anti-mutCALR antibody clone 172 (antibody, human IgG1, lambda, N297A, V domains shown)
VH: B2 VH with A55S
VL: B2 VL with V77A, E78Q
notes: as for B1
Turning to B4, the Kd stood at 2.24 nM, the koff worked out at 0.0025 s⁻¹ and the kon worked out at 1.12e+06 M⁻¹ s⁻¹.

B5: anti-mutCALR antibody clone 185 (antibody, human IgG1, lambda, N297A, V domains shown)
VH: B2 VH with A55D, R84S, T87R, L93V
VL: B2 VL
notes: as for B1
B5: the Kd is 0.171 nM, the koff came to 0.000911 s⁻¹ and the kon worked out at 5.32e+06 M⁻¹ s⁻¹.

B6: anti-mutCALR antibody clone 171 (antibody, human IgG1, lambda, N297A, V domains shown)
VH: B2 VH
VL: B2 VL with V77A, E78Q
notes: as for B1
As to B6, the Kd came out at 1.65 nM, the koff came to 0.0109 s⁻¹ and the kon was found to be 6.57e+06 M⁻¹ s⁻¹.

B7: anti-mutCALR antibody clone 173 (antibody, human IgG1, lambda, N297A, V domains shown)
VH: B2 VH with A55E
VL: B2 VL with V77A, E78Q
For B7, the Kd was 0.653 nM, the koff worked out at 0.00349 s⁻¹ and the kon amounted to 5.35e+06 M⁻¹ s⁻¹.

B8: anti-mutCALR antibody clone 184 (antibody, human IgG1, lambda, N297A, V domains shown)
VH: B2 VH with A55D, G56A
VL: B2 VL
notes: as for B1
For B8, the Kd stood at 1.57 nM, the koff stood at 0.000673 s⁻¹ and the kon was 428000 M⁻¹ s⁻¹.

B9: anti-mutCALR antibody clone 182 (antibody, human IgG1, lambda, N297A, V domains shown)
VH: B2 VH with A55S
VL: B2 VL
notes: as for B1
Take B9: the Kd was 1.23 nM, the koff was 0.00692 s⁻¹ and the kon was found to be 5.62e+06 M⁻¹ s⁻¹.

B10: anti-mutCALR antibody clone 180 (antibody, human IgG1, lambda, N297A, V domains shown)
VH: B2 VH with A55D
VL: B2 VL
notes: as for B1
For B10, the Kd was determined as 0.198 nM, the koff turned out to be 0.127 s⁻¹ and the kon is over 1e+07 M⁻¹ s⁻¹.

B11: anti-mutCALR antibody clone 183 (antibody, human IgG1, lambda, N297A, V domains shown)
VH: B2 VH with A55E
VL: B2 VL
As to B11, the Kd stood at 1 nM, the koff was found to be 0.00124 s⁻¹ and the kon was 1.23e+06 M⁻¹ s⁻¹.

B12: anti-mutCALR antibody clone 186 (antibody, human IgG1, lambda, N297A, V domains shown)
VH: B2 VH with R84S, T87R, L93V
VL: B2 VL
notes: as for B1
In the case of B12, the Kd is 2.86 nM, the koff was determined as 0.00243 s⁻¹ and the kon is 848000 M⁻¹ s⁻¹.

For the origin of these results see US20230272055A1 (Incyte, published 2023).
